# Values of other authors, collected in patent publication US20180185417.
# Molecular target: CD31 (PECAM-1) (Homo sapiens) (UniProt P16284)
# Conditions: CITED reported affinity of the commercial aptamer (1.14×10−9 M), method not stated
substance,measurement,value
CD31 aptamer (APTSCI CD31-2196BCI),Kd,1.14 nM
